According to the supplement of paper PMC9732359:
± gives the uncertainty stated by the source.

Test: protein stability index of a GFP-peptide fusion (yeast GPS) (PSI 1-4); higher = more stable; sorted into four equal gates, so the index is relative within each strain
Summary of the method: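 Tiled 17-residue yeast protein peptides were fused downstream of GFP in a plasmid that also expresses Cherry, and the pooled library was carried in yeast. Mid-log cultures in leucine-free medium were sorted into four equal gates by GFP/Cherry fluorescence ratio, and plasmids from each gate were PCR-amplified and Illumina-sequenced, with reads assigned to strains by barcodes. The protein stability index for each peptide was each gate's read frequency times its gate number, summed.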

| Sequence | protein stability index (doa10∆) | protein stability index (pdr5∆) | protein stability index (san1∆) | protein stability index (ubr1∆) |
| --- | --- | --- | --- | --- |
| VWFSHPRRYGKGSRQCR [RPS29A] | 3.14 ± 0.16 | 3.24 ± 0.1 | 3.39 ± 0.067 | 3.31 ± 0.11 |
| YIRKLISSGLLYLQDSN [SRB8] | 1.63 ± 0.068 | 1.21 ± 0.093 | 1.18 ± 0.11 | 1.11 ± 0.061 |
| KLDTEVKNTNANPVVAT [SWP82] | 1.94 ± 0.069 | 2.38 ± 0.082 | 2.54 ± 0.08 | 1.86 ± 0.05 |
| FLVEYEGQENNYNSTSR [SIR4] | 2.85 ± 0.093 | 2.76 ± 0.08 | 2.29 ± 0.1 | 3.24 ± 0.052 |
| RAPIYHSKFRSSSGNTW [YML031W/NDC1] | 2.43 ± 0.11 | 2.34 ± 0.06 | 3.15 ± 0.084 | 2.59 ± 0.06 |
| ANNNGSNLQRAQNVPMN [GAL11] | 3.09 ± 0.096 | 3.54 ± 0.12 | 3.17 ± 0.099 | 3.09 ± 0.085 |
| SQQNIVPNSSDQAELPN [SNF2] | 2.73 ± 0.06 | 2.67 ± 0.079 | 3.04 ± 0.057 | 3.01 ± 0.069 |
| KIDGNPDELIKAGVEAI [PRE5] | 3.32 ± 0.17 | 3.44 ± 0.2 | 3.29 ± 0.083 | 3.36 ± 0.092 |
| INMADRSLGLQQVVCIF [POP6] | 1.39 ± 0.093 | 1.3 ± 0.11 | 1.4 ± 0.15 | 1.06 ± 0.11 |
| LQVGDVVSTTAVIESVV [FAS1] | 2.33 ± 0.056 | 1.59 ± 0.056 | 2.04 ± 0.091 | 2.01 ± 0.049 |
| SMRIQILRRQAILRQQQ [GAL11] | 3.19 ± 0.29 | 2.98 ± 0.17 | 3.17 ± 0.19 |  |
| SGTAATGAASNQSSFNF [YOR098C/NUP1] | 2.7 ± 0.072 | 3.01 ± 0.09 | 2.68 ± 0.12 | 3.07 ± 0.053 |
| LYRYRFDPFQAVSRSMT [ECM29] | 2.57 ± 0.067 | 2.65 ± 0.049 | 2.76 ± 0.057 | 2.74 ± 0.043 |
| NVKYRAVVFKPFKGEVV [RPB7] | 2.96 ± 0.12 | 2.85 ± 0.047 | 2.43 ± 0.075 | 2.86 ± 0.075 |
| ALGQDTEKMEEQLDLLS [MED11] | 3.03 ± 0.099 | 3.09 ± 0.082 | 2.99 ± 0.073 | 3.31 ± 0.064 |
| QGGAMNKKSEQALDISK [SRP72] | 3.07 ± 0.067 | 3.12 ± 0.058 | 3 ± 0.043 | 3.07 ± 0.063 |
| ENIPVALCKNRKCQFRT [POP1] | 2.46 ± 0.048 | 2.68 ± 0.059 | 2.32 ± 0.079 | 1.96 ± 0.035 |
| PEENATEGPSDKKLNLN [SNF12] |  | 3.59 ± 0.17 | 3.27 ± 0.099 | 3.29 ± 0.1 |
| ISPESVFGTLGELIKVN [SMC3] | 2.15 ± 0.06 | 2.25 ± 0.078 | 1.84 ± 0.096 | 1.86 ± 0.036 |
| VPAVVDDPLENMFGDYS [SNF6] | 3.09 ± 0.14 | 3.48 ± 0.12 | 2.85 ± 0.17 | 3.35 ± 0.11 |
| FERLVPRGTAKLIIHRK [SMC3] | 3.01 ± 0.12 | 2.98 ± 0.12 |  | 2.86 ± 0.03 |
| QKVFVRSRNGGATKIVR [DIS3] | 2.33 ± 0.085 | 1.59 ± 0.11 | 2.88 ± 0.1 | 2.45 ± 0.21 |
| VRSREDRKNRAPPQRPR [RPS26A] | 3.27 ± 0.26 |  | 2.76 ± 0.12 |  |
| TEVRAEDEAALAKLVST [RPL8A] | 2.9 ± 0.062 | 2.93 ± 0.06 | 2.59 ± 0.055 | 2.74 ± 0.048 |
| MLLLNIFISSDHEFVLI [YMR129W/POM152] | 1.64 ± 0.057 | 1.28 ± 0.055 | 1.32 ± 0.098 | 1.23 ± 0.057 |
| SALQQIMYQQMLKYRRL [SNF2] | 1.51 ± 0.045 | 1.43 ± 0.036 | 1.44 ± 0.091 | 1.35 ± 0.029 |
| YRATSLDPSLRAPIYHS [YML031W/NDC1] | 2.4 ± 0.068 | 2.68 ± 0.055 | 2.44 ± 0.058 | 2.44 ± 0.037 |

| Sequence | protein stability index (doa10∆) | protein stability index (pdr5∆) | protein stability index (san1∆) | protein stability index (ubr1∆) |
| --- | --- | --- | --- | --- |
| NAPTFNPKYDTSNASMN [YAR002W/NUP60] | 3.01 ± 0.046 | 3.08 ± 0.043 | 2.9 ± 0.036 | 3.17 ± 0.046 |
| KLLLLRINSTDEDLHEF [SRB8] | 2.61 ± 0.2 | 3.06 ± 0.16 | 2.94 ± 0.18 | 3.24 ± 0.27 |
| ITFLQTLYIGNTANGRP [ECM29] | 2.04 ± 0.085 | 2.73 ± 0.09 | 2.6 ± 0.16 | 1.97 ± 0.12 |
| DKLEKVTHDCYRVTLES [RPC34] | 3.37 ± 0.16 | 3.3 ± 0.06 | 3.25 ± 0.075 | 3.12 ± 0.085 |
| NHITEFPSIPLPINGPI [RPC31] | 2.06 ± 0.05 | 2.24 ± 0.048 | 2.08 ± 0.07 | 1.94 ± 0.051 |
| FKSSVEMGKTDKSTKTA [YOR098C/NUP1] | 3.45 ± 0.095 | 3.24 ± 0.099 | 3.24 ± 0.05 | 3.43 ± 0.063 |
| HDISKTETSNEDEDEDD [SNU114] | 3.02 ± 0.058 | 3.03 ± 0.057 | 2.98 ± 0.039 | 3.08 ± 0.037 |
| SNQRFKDLQWLEFARIT [SIN4] | 3.17 ± 0.064 | 3.13 ± 0.057 | 2.74 ± 0.068 | 3.15 ± 0.073 |
| NMLICAPTGSGKTNIAL [BRR2] | 2.55 ± 0.079 | 3.12 ± 0.08 | 2.12 ± 0.091 | 2.98 ± 0.053 |
| AQDFKTDLRFQSSAIGA [HHT1] | 1.32 ± 0.12 | 1.41 ± 0.14 | 1.24 ± 0.19 | 1.3 ± 0.23 |
| GIKVSLLGIFDDIFIPQ [RPC25] | 1.78 ± 0.077 | 1.73 ± 0.092 | 2 ± 0.18 | 1.77 ± 0.081 |
| RILKNVSPNDNNSANNN [YMR153W/NUP53] | 2.75 ± 0.052 | 2.42 ± 0.048 | 2.29 ± 0.054 | 2.59 ± 0.044 |
| KKEENETISNVAKTAPN [SNF2] | 2.86 ± 0.072 | 3.03 ± 0.065 | 2.52 ± 0.1 | 2.94 ± 0.047 |
| EHAKWGPAAAIEFEYDP [RPB3] | 2.54 ± 0.078 | 3.01 ± 0.074 | 2.36 ± 0.07 | 3.09 ± 0.075 |
| LSDLSSPVQDWNLLRSL [YML103C/NUP188] | 3.29 ± 0.14 | 3.07 ± 0.17 | 2.86 ± 0.1 | 2.65 ± 0.14 |
| SAAGMTAAIDSVVSQIE [FAS1] | 3.49 ± 0.23 | 3.15 ± 0.11 | 3.04 ± 0.24 | 2.81 ± 0.11 |
| NQKLALVIKSGKYTLGY [RPL30] | 2.46 ± 0.11 | 2.87 ± 0.09 | 2.29 ± 0.13 | 2.93 ± 0.047 |
| PDIVGHEFTLSFTYELK [BRR2] | 2 ± 0.038 | 2.06 ± 0.036 | 2.15 ± 0.05 | 2.21 ± 0.033 |
| REVENSVSLLNSDIANL [SMC1] | 2.8 ± 0.063 | 2.59 ± 0.077 | 2.99 ± 0.07 | 2.86 ± 0.072 |
| MVAATKRRKTHIHKHVK [RET1] | 2.96 ± 0.17 | 3.08 ± 0.15 | 2.31 ± 0.2 | 3.09 ± 0.1 |
| ELKNELAKTKENYDAKI [YIL149C/MLP2] | 3.22 ± 0.073 | 3.43 ± 0.071 | 3.15 ± 0.052 | 3.08 ± 0.076 |
| KQYLSASFSLKNGDKPH [RPL6A] | 2.34 ± 0.057 | 1.93 ± 0.045 | 2.43 ± 0.058 | 2.96 ± 0.029 |
| QQQQMQQQQQQQQQQQN [SSN2] | 2.31 ± 0.11 | 2.63 ± 0.098 | 2.8 ± 0.18 | 2.83 ± 0.1 |
| PGVLPVGIDTHTATDIY [SNF2] | 2.96 ± 0.066 | 3.04 ± 0.064 | 2.77 ± 0.045 | 2.69 ± 0.04 |
| GYYVGYKATATGPKQQE [SCL1] | 3.1 ± 0.12 | 3.2 ± 0.088 | 3.02 ± 0.12 | 3.25 ± 0.14 |
| AQASEEENDLQQKLNTR [REC8] | 2.96 ± 0.26 |  |  |  |
| NNVYFAAGALFVSSGFD [RPN14] | 1.78 ± 0.13 | 2.81 ± 0.15 | 1.92 ± 0.29 | 2.21 ± 0.17 |
